Laboratory results from the Human Domainome abundance scans (Beltran et al. 2025).
± gives the uncertainty stated by the source.

B1: Ankyrin-1, residues 1405 to 1484; numbered along this chain, P16157 (parent)
chain: MKMAVISEHLGLSWAELARELQFSVEDINRIRVENPNSLLEQSVALLNLWVIREGQNANMENLYTALQSIDRGEIVNMLE

Variants of: B1
Assay: abundance fitness (aPCA) (normalised: wild type 0, dead -1); higher = more abundant; growth selection in yeast, the domain comes from the species named
Settings: Homo sapiens

Abundance fitness, by site and new letter:
W50: F -0.713 ± 0.28 | D -0.653 ± 0.29 | A -0.902 ± 0.2 | E -0.834 ± 0.23 | V -0.923 ± 0.15 | S -0.734 ± 0.14 | K -0.655 ± 0.18 | Q -0.708 ± 0.39 | L -0.368 ± 0.082 | C -0.71 ± 0.36 | G -1.07 ± 0.16 | Y 0.015 ± 0.17 | R -0.863 ± 0.12 | P -1 ± 0.26 | T -0.823 ± 0.16
N62: C -0.126 ± 0.11 | D 0.109 ± 0.11 | S -0.081 ± 0.076 | I 0.089 ± 0.089 | A -0.045 ± 0.079 | F 0.034 ± 0.13 | P -0.265 ± 0.15 | T 0.211 ± 0.1 | V 0.071 ± 0.065 | L -0.037 ± 0.09 | Y 0.002 ± 0.11 | R 0.032 ± 0.1 | E -0.197 ± 0.17
I52: G -0.351 ± 0.35
I70: A -0.808 ± 0.16 | D -0.881 ± 0.26 | T -0.651 ± 0.14 | G -0.911 ± 0.11 | V -0.193 ± 0.054 | F -0.693 ± 0.2 | R -0.437 ± 0.078 | M -0.651 ± 0.19 | C -0.384 ± 0.094 | W -0.99 ± 0.28 | Y -0.152 ± 0.25 | H -0.404 ± 0.45 | S -0.604 ± 0.13 | P -0.8 ± 0.19 | L -0.762 ± 0.1
R53: Q -0.483 ± 0.11 | D -0.613 ± 0.15 | T -0.682 ± 0.18 | F -0.927 ± 0.22 | G -0.507 ± 0.058 | C -0.797 ± 0.2 | Y -0.842 ± 0.35 | E -0.512 ± 0.1 | A -0.555 ± 0.078 | P -0.983 ± 0.21 | N -0.31 ± 0.26 | H -0.758 ± 0.23 | S -0.591 ± 0.1 | V -0.847 ± 0.11 | K -0.17 ± 0.08
M60: F 0.671 ± 0.27 | C -0.564 ± 0.23 | V 0.117 ± 0.12 | A -0.343 ± 0.16 | S -0.28 ± 0.14 | E -0.42 ± 0.18 | N -0.723 ± 0.47 | H 0.243 ± 0.24 | P -0.207 ± 0.18 | R -0.704 ± 0.15 | G -0.813 ± 0.2 | T -0.286 ± 0.19 | W 0.055 ± 0.18 | K -0.534 ± 0.35
A66: Y -0.494 ± 0.11 | H -0.151 ± 0.087 | L -0.977 ± 0.11 | E -0.85 ± 0.17 | R -0.746 ± 0.1 | M -0.332 ± 0.2 | I -0.564 ± 0.28 | S -0.26 ± 0.069 | F -1.05 ± 0.48 | N -0.562 ± 0.19 | P -0.1 ± 0.066 | C 0.016 ± 0.07 | G -0.197 ± 0.048 | V -0.749 ± 0.097 | D -0.884 ± 0.15 | T -0.794 ± 0.13 | K -0.263 ± 0.12 | W -0.99 ± 0.32 | Q -0.402 ± 0.21
Q56: T 0.158 ± 0.12 | L -0.19 ± 0.061 | M -0.061 ± 0.11 | V 0.07 ± 0.065 | D -0.139 ± 0.19 | S -0.097 ± 0.07 | C -0.167 ± 0.1 | I 0.097 ± 0.17 | E 0.055 ± 0.085 | N -0.191 ± 0.47 | H -0.213 ± 0.26 | R -0.02 ± 0.046 | G -0.035 ± 0.05 | Y -0.147 ± 0.17 | P -0.052 ± 0.08 | W -0.232 ± 0.16 | A -0.113 ± 0.091
E61: R -0.316 ± 0.16 | D -0.1 ± 0.28 | A 0.165 ± 0.21 | V -0.523 ± 0.5 | G -0.414 ± 0.25 | S -0.284 ± 0.16 | Q 0.459 ± 0.34
D71: M -0.127 ± 0.14 | A -0.229 ± 0.053 | F -0.627 ± 0.2 | Q -0.274 ± 0.11 | V -0.83 ± 0.12 | T -0.385 ± 0.15 | E 0.075 ± 0.075 | K -0.058 ± 0.079 | R 0.008 ± 0.049 | N 0.006 ± 0.083 | P -0.437 ± 0.11 | L -0.811 ± 0.095 | C -0.144 ± 0.094 | S -0.213 ± 0.07 | H -0.192 ± 0.18 | W -0.827 ± 0.14 | G 0.095 ± 0.04
E54: L -0.567 ± 0.076 | A -0.496 ± 0.077 | N -0.043 ± 0.091 | D -0.3 ± 0.1 | P -0.977 ± 0.25 | I -0.931 ± 0.26 | R -0.456 ± 0.065 | Y -0.357 ± 0.15 | C -0.198 ± 0.089 | T -0.455 ± 0.098 | S -0.136 ± 0.052 | G -0.115 ± 0.049 | F -0.606 ± 0.15 | H -0.294 ± 0.17 | V -0.412 ± 0.061 | K -0.29 ± 0.12 | Q -0.118 ± 0.039 | M -0.294 ± 0.058 | W -0.62 ± 0.11
L63: R -0.95 ± 0.18 | C -0.748 ± 0.3 | M -0.027 ± 0.087 | P -0.805 ± 0.2 | F -0.632 ± 0.3 | V -0.136 ± 0.042 | N -0.806 ± 0.36 | T -0.493 ± 0.15 | S -0.637 ± 0.18 | W -0.693 ± 0.22 | E -0.646 ± 0.24 | A -0.79 ± 0.2 | I 0.037 ± 0.2 | Q -0.075 ± 0.23 | D -0.763 ± 0.38
L49: Y -0.037 ± 0.069
G55: R -0.394 ± 0.078 | S -0.277 ± 0.12 | L -0.871 ± 0.2 | M -0.661 ± 0.46 | C -0.389 ± 0.17 | P -0.69 ± 0.41 | Q -0.339 ± 0.13 | W -1.01 ± 0.42 | T -0.133 ± 0.15 | E -0.266 ± 0.18 | D -0.1 ± 0.1 | K -0.666 ± 0.44 | I -0.687 ± 0.32 | F -0.765 ± 0.33
Q68: A -0.012 ± 0.058 | C -0.235 ± 0.17 | S -0.199 ± 0.062 | F -0.178 ± 0.13 | R -0.038 ± 0.05 | D -0.109 ± 0.11 | W -0.146 ± 0.071 | Y -0.202 ± 0.14 | G -0.152 ± 0.039 | E -0.102 ± 0.082 | P -0.767 ± 0.2 | V -0.08 ± 0.054 | K 0.169 ± 0.14 | H -0.029 ± 0.24 | N 0.003 ± 0.13 | M -0.181 ± 0.094 | T -0.256 ± 0.11 | I -0.097 ± 0.12
N59: T -0.338 ± 0.16 | K -0.02 ± 0.19 | R 0.034 ± 0.053 | W -0.371 ± 0.056 | L -0.2 ± 0.1 | D 0.245 ± 0.11 | H -0.376 ± 0.28 | C -0.222 ± 0.12 | S 0.059 ± 0.062 | F -0.388 ± 0.17 | A -0.047 ± 0.078 | Q -0.031 ± 0.11 | V -0.078 ± 0.046 | I -0.314 ± 0.2 | P -0.253 ± 0.12 | G -0.151 ± 0.058
T65: D 0.009 ± 0.065 | H -0.05 ± 0.1 | G -0.045 ± 0.043 | S 0.001 ± 0.046 | F -0.095 ± 0.083 | R -0.04 ± 0.044 | M -0.15 ± 0.076 | P 0.095 ± 0.065 | C -0.002 ± 0.087 | N -0.004 ± 0.14 | A -0.029 ± 0.052 | K -0.055 ± 0.12 | Q 0.016 ± 0.043 | W -0.291 ± 0.083 | V -0.153 ± 0.053 | Y -0.132 ± 0.11 | E 0.015 ± 0.074 | L -0.072 ± 0.049 | I -0.209 ± 0.14
L67: G -0.852 ± 0.097 | C -0.743 ± 0.28 | H -0.911 ± 0.34 | W -0.999 ± 0.19 | E -0.792 ± 0.21 | I -0.156 ± 0.14 | T -0.965 ± 0.29 | F -0.788 ± 0.23 | Q -0.809 ± 0.26 | S -0.829 ± 0.14 | M -0.092 ± 0.1 | V -0.771 ± 0.11 | A -0.895 ± 0.22 | R -0.803 ± 0.097 | P -0.858 ± 0.26
V51: L 0.053 ± 0.077 | S 0.128 ± 0.051 | Y -0.023 ± 0.2 | H 0.026 ± 0.1 | F 0.071 ± 0.11 | N -0.159 ± 0.12 | K 0.156 ± 0.1 | Q 0.176 ± 0.074 | T 0.068 ± 0.07 | R 0.065 ± 0.06 | A -0.072 ± 0.079 | M 0.026 ± 0.11 | I 0.017 ± 0.11 | G -0.001 ± 0.05 | W 0.085 ± 0.087
A58: M 0.122 ± 0.17 | G 0.038 ± 0.048 | E -0.192 ± 0.1 | C 0.031 ± 0.14 | H -0.241 ± 0.24 | W -0.062 ± 0.077 | R -0.049 ± 0.065 | F -0.253 ± 0.2 | S -0.078 ± 0.083 | Q -0.095 ± 0.14 | P 0.195 ± 0.083 | Y -0.065 ± 0.22 | V 0.124 ± 0.064 | N 0.092 ± 0.19 | I -0.008 ± 0.19 | L 0.157 ± 0.063 | K 0.046 ± 0.057 | T -0.195 ± 0.14
S69: M -0.133 ± 0.089 | N -0.106 ± 0.11 | W -0.291 ± 0.08 | P -0.467 ± 0.13 | H 0.342 ± 0.18 | E -0.042 ± 0.068 | C 0.056 ± 0.095 | I -0.047 ± 0.078 | Q -0.137 ± 0.11 | V 0.029 ± 0.044 | A -0.045 ± 0.051 | K -0.035 ± 0.099 | F -0.341 ± 0.11 | R -0.006 ± 0.053 | L -0.161 ± 0.056 | D -0.06 ± 0.087
Y64: W -0.531 ± 0.084 | N 0.087 ± 0.2 | E -0.353 ± 0.096 | C -0.24 ± 0.084 | L -0.172 ± 0.067 | R -0.407 ± 0.056 | T -0.049 ± 0.1 | A -0.494 ± 0.12 | P -0.725 ± 0.22 | Q -0.594 ± 0.2 | K -0.473 ± 0.2 | D -0.797 ± 0.44 | M -0.185 ± 0.11 | G -0.274 ± 0.056 | H -0.312 ± 0.17 | V -0.225 ± 0.061 | I -0.302 ± 0.13
R72: A -0.632 ± 0.1
N57: G 0.017 ± 0.058 | K -0.117 ± 0.11 | D -0.072 ± 0.15 | A -0.212 ± 0.13 | M -0.075 ± 0.13 | T -0.154 ± 0.16 | R -0.191 ± 0.11 | F -0.437 ± 0.19 | I -0.636 ± 0.47 | V -0.068 ± 0.095 | H -0.255 ± 0.29 | P -0.061 ± 0.12 | L -0.108 ± 0.066 | C -0.168 ± 0.21 | Y 0.093 ± 0.21 | W -0.175 ± 0.08 | E 0.163 ± 0.15
